Here are results for one substance from patent US20190040477.

In data set [1] the test system is GST-mRtACPI (S1062A mutant of the first ACP domain of Rhodosporidium toruloides Fas2, residues 1022-1184, as GST fusion protein).
Data set [2] deals with GST-mRtACPII (S1253A mutant of the second ACP domain of Rhodosporidium toruloides Fas2, residues 1213-1375, as GST fusion protein).
The test system of data set [3] is GST-wRtACPI (wild type first ACP domain of Rhodosporidium toruloides Fas2, residues 1022-1184, as GST fusion protein).
Data set [4] has as its system GST-wRtACPII (wild type second ACP domain of Rhodosporidium toruloides Fas2, residues 1213-1375, as GST fusion protein).

For “GST-RtPPT (phosphopantetheinyl transferase domain of Rhodosporidium toruloides Fas2, residues 2809-2928, as GST fusion protein)”, the ΔM (Da): change in molecular weight of the ACP after treatment by PPT, MALDI-TOF mass spectrometry (in vitro phosphopantetheinylation) is 2 Da in data set [1] and 46 Da in data set [2]. The ΔM (Da): gain in molecular weight of the ACP after treatment by PPT, MALDI-TOF mass spectrometry (in vitro phosphopantetheinylation) in data set [3] turned out to be 332 Da; in data set [4], 322 Da.
